Blank lines part the entries; values can stand above or below the binder they belong to.
Tests used:
[1] = target: T1, recombinant human SEZ6L2 (extracellular portion of human SEZ6L2 fused to six C-terminal histidine-tag repeats) (human, UniProt Q6UXD5 28-844); assay: BLI (ForteBio Octet Red96), antibody on Protein A biosensors, recombinant target protein in solution
T1 construct: also called SEZ6L2-his; recombinant SEZ6L2

[2] = target: T2, recombinant cynomolgus monkey SEZ6L2 (cynomolgus monkey, UniProt G7Q0V6 28-844); assay: as above
T2 construct: The construct is not described; also called cynomolgus monkey SEZL2

[3] = target: T3, human SEZ6 on cells (293-SEZ6) (human, UniProt Q53EL9 20-994); assay: flow cytometry on live 293-SEZ6 cells, Alexa Fluor 488 anti-human IgG secondary [panel C]
T3 construct: whole, on cells; also called Seizure Protein 6 Homolog
T3 sequence (looked up): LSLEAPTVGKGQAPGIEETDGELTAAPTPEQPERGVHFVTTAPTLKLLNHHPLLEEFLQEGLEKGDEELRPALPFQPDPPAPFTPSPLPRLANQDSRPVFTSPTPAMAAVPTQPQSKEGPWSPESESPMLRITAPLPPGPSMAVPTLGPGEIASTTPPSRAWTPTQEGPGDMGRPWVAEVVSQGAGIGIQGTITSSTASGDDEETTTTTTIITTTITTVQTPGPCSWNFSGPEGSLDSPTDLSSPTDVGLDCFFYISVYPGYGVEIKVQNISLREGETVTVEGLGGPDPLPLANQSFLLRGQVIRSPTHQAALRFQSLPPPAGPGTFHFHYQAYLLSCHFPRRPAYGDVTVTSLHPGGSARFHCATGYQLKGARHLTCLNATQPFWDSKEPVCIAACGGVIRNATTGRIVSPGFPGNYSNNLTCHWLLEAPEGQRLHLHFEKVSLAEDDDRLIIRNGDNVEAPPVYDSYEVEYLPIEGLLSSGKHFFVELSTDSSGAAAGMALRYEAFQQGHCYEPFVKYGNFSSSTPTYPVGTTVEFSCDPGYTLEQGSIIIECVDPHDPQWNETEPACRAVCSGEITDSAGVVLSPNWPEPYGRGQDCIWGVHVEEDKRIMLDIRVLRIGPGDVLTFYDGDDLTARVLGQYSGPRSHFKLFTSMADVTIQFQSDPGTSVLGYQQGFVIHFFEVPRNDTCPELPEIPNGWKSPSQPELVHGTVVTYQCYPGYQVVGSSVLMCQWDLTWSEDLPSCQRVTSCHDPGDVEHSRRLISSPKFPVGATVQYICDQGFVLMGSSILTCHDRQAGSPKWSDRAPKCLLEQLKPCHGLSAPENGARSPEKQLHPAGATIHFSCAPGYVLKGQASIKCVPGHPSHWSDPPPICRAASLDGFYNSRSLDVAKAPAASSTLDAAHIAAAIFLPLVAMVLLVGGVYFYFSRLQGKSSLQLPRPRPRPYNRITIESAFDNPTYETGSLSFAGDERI

[4] = target: T4, human SEZ6L on cells (293-SEZ6L) (human, UniProt Q9BYH1 29-1024); assay: flow cytometry on live 293-SEZ6L cells, Alexa Fluor 488 anti-human IgG secondary [panel C]
T4 construct: whole, on cells; also called Seizure 6-like Protein
T4 sequence (looked up): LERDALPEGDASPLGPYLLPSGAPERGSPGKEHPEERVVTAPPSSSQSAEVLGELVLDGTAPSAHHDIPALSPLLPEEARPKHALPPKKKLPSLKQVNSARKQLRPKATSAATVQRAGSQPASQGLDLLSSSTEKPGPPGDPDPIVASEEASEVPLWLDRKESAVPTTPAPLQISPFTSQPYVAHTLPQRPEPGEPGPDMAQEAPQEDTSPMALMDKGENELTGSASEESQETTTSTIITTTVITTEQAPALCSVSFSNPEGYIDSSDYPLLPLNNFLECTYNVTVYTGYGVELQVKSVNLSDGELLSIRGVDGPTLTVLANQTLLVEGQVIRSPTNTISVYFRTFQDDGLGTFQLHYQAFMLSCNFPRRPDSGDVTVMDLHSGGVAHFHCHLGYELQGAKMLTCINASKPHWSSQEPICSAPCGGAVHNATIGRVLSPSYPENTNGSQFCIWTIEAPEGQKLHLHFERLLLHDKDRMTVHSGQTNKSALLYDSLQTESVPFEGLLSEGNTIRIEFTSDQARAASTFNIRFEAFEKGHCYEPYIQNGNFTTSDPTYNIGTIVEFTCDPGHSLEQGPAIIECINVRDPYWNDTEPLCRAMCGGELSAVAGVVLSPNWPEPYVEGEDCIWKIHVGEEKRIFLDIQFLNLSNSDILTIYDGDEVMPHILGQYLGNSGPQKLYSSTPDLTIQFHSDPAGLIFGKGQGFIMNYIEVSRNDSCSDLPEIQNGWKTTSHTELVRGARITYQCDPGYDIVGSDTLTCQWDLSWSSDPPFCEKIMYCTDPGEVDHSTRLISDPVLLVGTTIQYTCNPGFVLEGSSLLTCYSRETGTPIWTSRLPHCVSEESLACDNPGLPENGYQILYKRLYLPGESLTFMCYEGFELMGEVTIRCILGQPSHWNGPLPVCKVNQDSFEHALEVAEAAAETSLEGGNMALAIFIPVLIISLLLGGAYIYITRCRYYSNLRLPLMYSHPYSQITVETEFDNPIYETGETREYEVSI

[5] = target: T5, human SEZ6L2 on cells (293-SEZ6L2, HEK 293 cells transfected with human SEZ6L2, and SEZ6L2-expressing tumor … (human, UniProt Q6UXD5 28-910)); assay: flow cytometry on live 293-SEZ6L2 cells, primary antibody 1 ug/ml, Alexa Fluor 488 anti-human IgG secondary [panel B]
T5 construct: Tumor cell lines express the endogenous protein; also called hSEZ6L2
T5 sequence (Q6UXD5 28-910): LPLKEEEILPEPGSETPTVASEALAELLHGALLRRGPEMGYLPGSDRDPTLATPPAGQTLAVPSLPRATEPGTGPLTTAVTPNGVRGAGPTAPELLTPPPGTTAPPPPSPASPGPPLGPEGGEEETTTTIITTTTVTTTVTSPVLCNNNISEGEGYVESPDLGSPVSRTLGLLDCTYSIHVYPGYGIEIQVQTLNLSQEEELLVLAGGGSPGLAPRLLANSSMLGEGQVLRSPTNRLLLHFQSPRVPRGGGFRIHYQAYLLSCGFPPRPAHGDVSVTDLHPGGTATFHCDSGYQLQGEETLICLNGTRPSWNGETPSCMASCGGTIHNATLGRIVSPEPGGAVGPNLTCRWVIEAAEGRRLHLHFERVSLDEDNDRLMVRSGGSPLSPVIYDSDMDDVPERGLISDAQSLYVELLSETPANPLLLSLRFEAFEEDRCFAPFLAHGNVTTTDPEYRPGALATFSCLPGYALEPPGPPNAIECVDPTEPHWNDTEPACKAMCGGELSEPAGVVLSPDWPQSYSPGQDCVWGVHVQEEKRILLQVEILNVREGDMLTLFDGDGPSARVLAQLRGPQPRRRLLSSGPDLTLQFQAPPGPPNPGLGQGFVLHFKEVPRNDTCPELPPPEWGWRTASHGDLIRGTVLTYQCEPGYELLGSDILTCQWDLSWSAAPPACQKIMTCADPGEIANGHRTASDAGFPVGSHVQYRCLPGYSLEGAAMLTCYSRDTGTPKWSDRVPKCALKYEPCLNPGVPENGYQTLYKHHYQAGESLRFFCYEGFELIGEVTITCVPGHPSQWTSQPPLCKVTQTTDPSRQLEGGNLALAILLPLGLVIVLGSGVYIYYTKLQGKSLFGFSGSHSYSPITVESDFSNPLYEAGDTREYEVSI

[6] = target: T4, human SEZ6L on cells (293-SEZ6L); assay: flow cytometry on live 293-SEZ6L cells, Alexa Fluor 488 anti-human IgG secondary [panel B]
[7] = target: T3, human SEZ6 on cells (293-SEZ6); assay: flow cytometry on live 293-SEZ6 cells, Alexa Fluor 488 anti-human IgG secondary [panel B]
[8] = target: T4, human SEZ6L on cells (293-SEZ6L); assay: flow cytometry on live 293-SEZ6L cells, Alexa Fluor 488 anti-human IgG secondary [continued), panel E]
[9] = target: T3, human SEZ6 on cells (293-SEZ6); assay: flow cytometry on live 293-SEZ6 cells, Alexa Fluor 488 anti-human IgG secondary [continued), panel E]
[10] = target: T3, human SEZ6 on cells (293-SEZ6); assay: flow cytometry on live 293-SEZ6 cells, Alexa Fluor 488 anti-human IgG secondary [continued), panel J]
[11] = target: T4, human SEZ6L on cells (293-SEZ6L); assay: flow cytometry on live 293-SEZ6L cells, Alexa Fluor 488 anti-human IgG secondary [continued), panel J]
[12] = target: T3, human SEZ6 on cells (293-SEZ6); assay: flow cytometry on live 293-SEZ6 cells, Alexa Fluor 488 anti-human IgG secondary [continued), panel K]
[13] = target: T4, human SEZ6L on cells (293-SEZ6L); assay: flow cytometry on live 293-SEZ6L cells, Alexa Fluor 488 anti-human IgG secondary [continued), panel K]
[14] = target: T4, human SEZ6L on cells (293-SEZ6L); assay: flow cytometry on live 293-SEZ6L cells, Alexa Fluor 488 anti-human IgG secondary [panel D]
[15] = target: T3, human SEZ6 on cells (293-SEZ6); assay: flow cytometry on live 293-SEZ6 cells, Alexa Fluor 488 anti-human IgG secondary [panel D]
[16] = target: T3, human SEZ6 on cells (293-SEZ6); assay: flow cytometry on live 293-SEZ6 cells, Alexa Fluor 488 anti-human IgG secondary [continued), panel L]
[17] = target: T4, human SEZ6L on cells (293-SEZ6L); assay: flow cytometry on live 293-SEZ6L cells, Alexa Fluor 488 anti-human IgG secondary [continued), panel L]

T1 sequence (Q6UXD5 other isoform, or with tags, fused parts or gaps): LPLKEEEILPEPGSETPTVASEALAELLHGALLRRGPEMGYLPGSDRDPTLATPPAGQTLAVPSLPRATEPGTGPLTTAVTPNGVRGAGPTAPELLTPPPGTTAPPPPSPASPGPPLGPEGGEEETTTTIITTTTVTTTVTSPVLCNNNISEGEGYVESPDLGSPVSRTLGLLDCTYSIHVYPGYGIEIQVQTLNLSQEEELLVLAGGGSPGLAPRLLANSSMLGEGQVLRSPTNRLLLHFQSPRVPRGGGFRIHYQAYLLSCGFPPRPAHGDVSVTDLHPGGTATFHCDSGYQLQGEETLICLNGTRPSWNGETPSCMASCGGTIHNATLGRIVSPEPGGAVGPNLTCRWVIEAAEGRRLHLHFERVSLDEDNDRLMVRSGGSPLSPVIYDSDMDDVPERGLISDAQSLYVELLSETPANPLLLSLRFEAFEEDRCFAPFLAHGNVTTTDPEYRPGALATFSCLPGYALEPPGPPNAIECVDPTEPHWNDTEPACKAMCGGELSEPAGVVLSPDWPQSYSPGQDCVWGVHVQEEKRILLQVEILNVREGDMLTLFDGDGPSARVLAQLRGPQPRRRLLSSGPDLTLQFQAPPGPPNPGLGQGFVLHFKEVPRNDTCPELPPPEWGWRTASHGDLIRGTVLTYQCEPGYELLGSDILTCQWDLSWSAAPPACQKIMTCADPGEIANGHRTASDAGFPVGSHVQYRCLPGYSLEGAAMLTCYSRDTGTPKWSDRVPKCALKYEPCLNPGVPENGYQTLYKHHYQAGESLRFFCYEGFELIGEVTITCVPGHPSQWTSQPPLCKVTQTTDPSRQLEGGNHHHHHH

Kd [1]: 0.3 nM | Kd [2]: 0.3 nM | binding result [3]: no binding (tested: 1 ug/ml) | binding result [4]: no binding (tested: 1 ug/ml)
B1: human anti-SEZ6L2 antibody 3A1 (antibody, V domains shown)
VH: QVQLVQSGAEVKKPGASVKVSCKASGFTFTGYYILWMRQAPGQGLEWMGWINPNNGGTHYAQKFQGRVTMTRDTSISTAYMELSRLRSDDTAVYYCARDSGHDWYFDLWGRGTLVTVSS
VL: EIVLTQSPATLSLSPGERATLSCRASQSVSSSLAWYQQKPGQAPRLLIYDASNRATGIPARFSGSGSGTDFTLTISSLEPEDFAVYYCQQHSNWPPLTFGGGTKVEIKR
notes: Fully human antibody from H2L2 mice; it was captured on Protein A and detected with anti-human IgG

binding result [5]: binds | binding result [6]: no binding (tested: 1 ug/ml) | binding result [7]: no binding (tested: 1 ug/ml)
B2: human anti-SEZ6L2 antibody 1C6 (antibody, V domains shown)
VH: QVQLQESGPGLVKPSETLSLTCTVSGGSISSYYWSWIRQPPGKGLEWIGYIYNSGSTNYNPSLKSRVTISVDTSKNQFSLKLSSVTAADTAVYYCARRGDQGYWYFDLWGRGTLVTVSS
VL: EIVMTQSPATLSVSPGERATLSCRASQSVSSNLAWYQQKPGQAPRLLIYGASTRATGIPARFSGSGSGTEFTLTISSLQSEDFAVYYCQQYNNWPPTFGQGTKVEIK
notes: also called 106

Kd [1]: 24 nM | Kd [2]: 26 nM | binding result [8]: no binding (tested: 1 ug/ml) | binding result [9]: no binding (tested: 1 ug/ml)
B3: human anti-SEZ6L2 antibody 3A3 (antibody, V domains shown)
VH: QVQLQESGPGLVKPSGTLSLTCAVSGGSISSSNWWSWVRQPPGKGLEWIGEIYHSGSTNYNPSLKSRVTISVDKSKNQFSLKLSSVTAADTAVYYCAAYSGSYFEYWGQGTLVTVSS
VL: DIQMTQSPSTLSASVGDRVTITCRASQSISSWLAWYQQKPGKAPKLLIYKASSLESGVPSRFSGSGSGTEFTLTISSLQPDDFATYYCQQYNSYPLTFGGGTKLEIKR
notes: Fully human antibody from H2L2 mice

binding result [10]: no binding (tested: 1 ug/ml) | Kd [1]: 2 nM | Kd [2]: 2 nM | binding result [11]: no binding (tested: 1 ug/ml)
B4: humanized anti-SEZ6L2 antibody 3E2 (antibody, human IgG1, V domains shown)
VH: EVQLVESGGGLVQPGGSLKLSCAASGFSFNTITMNWVRQASGKGLEWVGRIRSKSNNYATYYADAVKDRFTISRDDSKNTAYLQMNSLKTEDTAVYYCVRGIFSGYVYAMDYWGQGTLVTVSS
VL: DVVMTQSPLSLPVTVGQPASISCRSSQSIVHSNGNTYLEWFQQRPGQSPRVLIYKVSNRFSGVPDRFSGSGSGTDFTLKISRVEAEDVGVYYCFQGSHVPYTFGGGTKLEIKR
notes: also called 3E2:7D4

Kd [1]: 2 nM | binding result [12]: no binding (tested: 1 ug/ml) | binding result [13]: no binding (tested: 1 ug/ml)
B5: humanized anti-SEZ6L2 antibody 16H8 (antibody, human IgG1, V domains shown)
VH: QIQLVQPGAEVKKPGASVKVSCKASGYTFTSYWMYWVRQAPGQGLEWMGAIYPRDSDTSYNQKFKGRVTMTRVTSTSTVYMELSSLRSEDTAVYYCTRGDYYYGSSYYAMDYWGQGTTVTVSS
VL: DIVMTQSPLSLPVTPGEPASISCSSSKSLLHSNGITYLYWYLQKPGQSPQLLIYRMSNLASGVPDRFSGSGSGTDFTLKISRVEAEDVGVYYCAQMLERPYTFGQGTKVEIKR
notes: Humanized from mu16H8; also called 16H8:A3F5

Kd [1]: 3 nM | Kd [2]: 3 nM | binding result [14]: no binding (tested: 1 ug/ml) | binding result [15]: no binding (tested: 1 ug/ml)
B6: human anti-SEZ6L2 antibody 3A2 (antibody, V domains shown)
VH: QVQLQESGPGLVKPSGTLSLTCAVSGGSISSYHWWSWVRQPPGKGLEWIGEIYHSGSTNYNPSLKSRVTISVDKSKNQFSLKLSSVTAADTAVYYCARWGRIAVADYWGQGTLVTVSS
VL: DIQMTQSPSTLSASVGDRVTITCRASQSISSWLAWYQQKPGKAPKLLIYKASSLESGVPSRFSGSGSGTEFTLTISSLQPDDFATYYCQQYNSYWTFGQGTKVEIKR
notes: as for B3

Kd [1]: 3 nM | Kd [2]: 3 nM | binding result [16]: no binding (tested: 1 ug/ml) | binding result [17]: no binding (tested: 1 ug/ml)
B7: humanized anti-SEZ6L2 antibody 20C4 (antibody, human IgG1, V domains shown)
VH: EVQLVESGGGLVQPGGSLRLSCAASGFTFTDYYMSWVRQAPGKGLEWVALIRNKANGYTTEYSASVKGRFTISRDNSKNSLYLQMNSLRAEDTAVYYCARNGLYGLFAYWGQGTLVTVSS
VL: DIVMTQTPLSIPVTPGEPASISCRSSTSLLESSGKHRLYWYLQKPGQSPQLLIYYMSNLASGVPDRFSGSGSGTDFTLKISRVEAEDFGVYYCMQSLEYPLTFGAGTKVEIKR
notes: also called 20C4:red
